Data as given in the RNAGym collection of RNA variant scans (doi:10.1093/molbev/msab373).

B1: Azoarcus group I ribozyme (parent)
chain: GUGCCUUGCGCCGGGAAACCACGCAAGGGAUGGUGUCAAAUUCGGCGAAACCUAAGCGCCCGCCCGGGCGUAUGGCAACGCCGAGCCAAGCUUCGGCGCCUGCGCCGAUGAAGGUGUAGAGACUAGACGGCACCCACCUAAGGCAAACGCUAUGGUGAAGGCAUAGUCCAGGGAGUGGCGAAAGUCACACAAACCGG

Variants of: B1
Experiment: reverse-splicing fitness (ratio to wild type); higher = more active; in vitro selection; Mg2+ level not given
Summary of the method: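 An in vitro group I ribozyme library with randomized positions was T7-transcribed and gel-purified. In triplicate, 10 pmol RNA in EPPS pH 7.5 was reacted with 50 pmoles of a 30-nt RNA substrate for 1 h at 37 °C across several added MgCl2 levels (1–48 mM), then stopped with EDTA. Products were reverse transcribed from a substrate-complementary primer, PCR-amplified and sequenced (HiSeq 4000). Fitness is a variant's read proportion after selection over that before, normalised to wild type.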

Variant | reverse-splicing fitness
C82U A111C A120G A145G C150G U176C | 0.0103
C82U A111C A120G A145G C150A C169A U176C | 0.0218
C82U A111C A120G A145G C150A C169A U176G | 0.00573
C82U A111C A120G A145G C150A C169A U176A | 0.0155
C82U A111C A120C C150U C169G | 0.0078
C82U A111C A120C C150U C169U | 0.0109
C82U A111C A120C C150U C169A | 0.00816
C82U A111C A120G A145C C169A U176G | 0.00336
C82U A111C A120G A145C C169A U176C | 0.00533
C82U A111C A120G A145C C169A U176A | 0.00788
C82U A111C A120G A145C C150A C169G U176G | 0.00512
C82U A111C A120G A145C C150A C169G U176C | 0.0127
C82U A111C A120G A145C C150A C169G U176A | 0.0204
C82U A111C A120C C150G C169A U176C | 0.00876
C82U A111C A120C C150G C169A U176A | 0.00943
C82U A111C A120C C150G C169A U176G | 0.00618
C82U A111C A120G A145G C150U C169A U176A | 0.0136
C82U A111C A120G A145G C150U C169A U176G | 0.00542
C82U A111C A120G A145G C150U C169A U176C | 0.0142
C82U A111C A120G A145C C150U C169A U176G | 0.00505
C82U A111C A120G A145C C150U C169A U176C | 0.00554

Variant | reverse-splicing fitness
C82U A111C A120G A145C C150U C169A U176A | 0.00813
C82U A111C A120G A145C C150G C169A U176A | 0.00754
C82U A111C A120G A145C C150G C169A U176G | 0.00441
C82U A111C A120G A145C C150G C169A U176C | 0.00509
C82U A111C A120C C150G C169G | 0.00626
C82U A111C A120C C150G C169U | 0.00884
C82U A111C A120C C150G C169A | 0.00879
C82U A111C A120G A145U U176A | 0.0148
C82U A111C A120G A145U U176C | 0.0192
C82U A111C A120G A145U U176G | 0.00452
C82U A111C A120C A145U U176A | 0.0118
C82U A111C A120C A145U U176C | 0.0181
C82U A111C A120C A145U U176G | 0.00547
C82U A111C A120G A145U C150U | 0.0111
C82U A111C A120G A145U C150G | 0.00658
C82U A111C A120G A145U C150A | 0.00775
C82U A111C A120G A145C C150A C169A U176A | 0.011
C82U A111C A120G A145C C150A C169A U176G | 0.00467
C82U A111C A120G A145C C150A C169A U176C | 0.00587
C82U A111C A120G A145U C150A C169A U176C | 0.00775
C82U A111C A120G A145U C150A C169A U176G | 0.00481

Variant | reverse-splicing fitness
C82U A111C A120G A145U C150A C169A U176A | 0.0102
C82U A111C A120G A145C C150G U176C | 0.0106
C82U A111C A120G A145C C150G U176G | 0.00269
C82U A111C A120G A145C C150G U176A | 0.00659
C82U A111C A120G A145U C150G C169G | 0.00689
C82U A111C A120G A145U C150G C169U | 0.00734
C82U A111C A120G A145U C150G C169A | 0.00828
C82U A111C A120G C150U C169G U176G | 0.00441
C82U A111C A120G C150U C169G U176C | 0.0161
C82U A111C A120G C150U C169G U176A | 0.0121
C82U A111C A120G C150G U176A | 0.00789
C82U A111C A120G C150G U176C | 0.013
C82U A111C A120G C150G U176G | 0.00294
C82U A111C A120C C150A C169G U176A | 0.0161
C82U A111C A120C C150A C169G U176G | 0.00704
C82U A111C A120C C150A C169G U176C | 0.0184
C82U A111C A120G A145U C150G C169U U176G | 0.00419
C82U A111C A120G A145U C150G C169U U176A | 0.00881
C82U A111C A120G A145U C150G C169U U176C | 0.0106
C82U A111C A120C A145U C169G U176G | 0.00515
C82U A111C A120C A145U C169G U176C | 0.0132

Variant | reverse-splicing fitness
C82U A111C A120C A145U C169G U176A | 0.013
C82U A111C A120G C150A | 0.00908
C82U A111C A120G C150U | 0.0115
C82U A111C A120G C150G | 0.00744
C82U A111C A120G C169U U176A | 0.0158
C82U A111C A120G C169U U176G | 0.00376
C82U A111C A120G C169U U176C | 0.0142
C82U A111C A120G A145U C150A C169G | 0.00681
C82U A111C A120G A145U C150A C169A | 0.00826
C82U A111C A120G A145U C150A C169U | 0.006
C82U A111C A120C C150A C169U | 0.0128
C82U A111C A120C C150A C169A | 0.00879
C82U A111C A120C C150A C169G | 0.00864
C82U A111C A120G C150G C169G U176A | 0.00584
C82U A111C A120G C150G C169G U176C | 0.00488
C82U A111C A120G C150G C169G U176G | 0.00455
C82U A111C A120G A145G C150U C169G | 0.00984
C82U A111C A120G A145G C150U C169A | 0.0103
C82U A111C A120G A145G C150U C169U | 0.00958
C82U A111C A120C A145U C169A | 0.00732
